Experimental data as given in the nanobody polyreactivity screen of Harvey et al. (2022).

Experiment: yeast display, Sf9 membrane polyspecificity reagent, FACS + sequencing; frameworks hold sequencing errors
Summary of the method: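 Sorting gates, low and high (top ~1%), were placed on anti-HA fluorescence to track expression and on streptavidin fluorescence to track reagent binding. A clone's polyreactivity label is taken from the gate it came out of. The reagent was 10% biotinylated, detergent-solubilized Sf9 membrane, applied for 1 hour at 4 °C to galactose-induced yeast display cells.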
In the case of “QVQLVESGGGLVQAGGSLRLSCAASGSTFIIYSMGWYRQAPGKERELVATISTRGTSTYYADSVKGRFTISRDNAKNTVYLQMNSLKPEDTAVYYCNARRRGYGNRYTFDYWGQGTQVTVSS”, the “polyreactivity (PSR sort gate)” value is reported as “high polyreactivity”. In the case of “QVQLVESGGGLVQAGGSLRLSCAASGFTFYSYAMGWYRPAPGKERELVAAISSGGSTKYADSVKGRFTISRDNAKNTVYLQMNSVKPEDTEVYYCAARYYRDYRWYTYAYDYWGQGTQVTVSS”, the “polyreactivity (PSR sort gate)” value is reported as “high polyreactivity”. With “QVQLVESVGGLVQAGGSLRLSCAASGRTFNYYARGWYRQAPGKERELVAAISWSGTPTYYADSVKGRFTISRDNAKNTVYLQMNSLKPEDTAVYYCAAYLVSYPRGNYIRYDYWGQGTQVTVSS” the “polyreactivity (PSR sort gate)” value was “low polyreactivity”. For “QVQLVESGGCLVQAGGSLRLSCASTGSIIYWYTMGWYRQAHGKDRELVAASSSIDGNTYYADSVKGRFTISRDNAKNTVYLQMNSLKPEDTAVYYCPAAYYNTDYYYWGQGTQVTVSS”, the “polyreactivity (PSR sort gate)” value was “low polyreactivity”. With “QVQLVESGGGLVQAGGSLRLSCAASGFIYGTYAMGWYRQAPGKEREFVAAITRSGSSTYYADSVKGRFTISRDNAKNTVYLLMNSLKPEDTAVYYCAADLTRGRFRYYYWGLGTQVTVSS” the “polyreactivity (PSR sort gate)” value was “high polyreactivity”. For “QVQLVESGGGLVQAGGSLRLSCAASGSTLYWNAMGWYRQAPGKERELVASITSSGGSTYYADSVKGRFTISRDNAKNTVYLQMNSLKPEDTAVYYCATESWWRYSEYYYWGQGTQVTVSS”, the “polyreactivity (PSR sort gate)” value was “low polyreactivity”. For “QVQLVESGGGLVQAGGSLRLSCAASGRIFSKYAMGWYRQAPGKERELVASIRWRGDRTYYADSVKGRFTISRDNAKNTVYLQMNSLKTEDTAVYYCAADEPGYGVGYWTYPVVPYDYWGQGTQVTVSS”, the “polyreactivity (PSR sort gate)” value was “low polyreactivity”. For “QVQLVESGGGLVQAGGSLRLSCAASGGIFDNYAMGWYRQAPGKEREFVAVISSGGTTNYADSVKGRFTISRVNAKNTVYLQMNSLKPEDTAVYYCAADYDYRQGYDSVHLDYWGQGTQVTVSS”, the “polyreactivity (PSR sort gate)” value was “low polyreactivity”. In the case of “QVQLVESGGGLVQAGGSLRLSCAASGSIFQYNTMGWYRQAPGKESELVASISWRSGSTYYADSVKGRFTISRDNAKNTVYLQMNSLKPEDTAVYYCAAQVDPWWYDAGYDYWGQGTQVTVSS”, the “polyreactivity (PSR sort gate)” value is reported as “low polyreactivity”. For “QVQLVESGGGLVQAGGSLRLSCAASGFTFVYNAMGWYRQAPGKERELVAAITSGGNTYYADSVKGRFTISRDNAKNTVYLQMNSLKPEDTAVYYCAKRGYGRYYAYDYWGQGTQVTVSS”, the “polyreactivity (PSR sort gate)” value was “high polyreactivity”. With “QVQLVESGGGLVQAGGSLRLSCAASGRIFYYYMAWYRHAPGKERELVAAITRGGGTYADSVKGRFTISRDNAKNTVYLQMNSLKPEDTAVYYCAAYPRGARRLDYWGQGTQVTVSS” the “polyreactivity (PSR sort gate)” value was “high polyreactivity”. For “QVQLVESGGGLVQAGGSLRLSCAASGFIFRYYAMGWYRQAPGKEREFVASINWNGGSTSYADSVKGRFTISRDNAKNTVYLQMNSLKPEDTAVSYCAADFQYAIHTDMDYWGHGTQVTVSS”, the “polyreactivity (PSR sort gate)” value was “high polyreactivity”. In the case of “QVQLVESGGGLVQAGFSLRLSCAASGSIFDYYTMGCYRQAPGKERELVATIRSGDSTNYADSVKGRFTISRDNAKNTVYLQMNSLKPEDTAVYYFAADDGAYPTLYDYWGQGTQVTVSS”, the “polyreactivity (PSR sort gate)” value is reported as “low polyreactivity”. With “QVQLVESGGGLVQAGGSLRLSCAASGSTFPQYTMGWSRQAQGKERELVAAITSGGRTYYADSVKGRFTISRDNAKNTVYLQMNSLKPEDTAVYFCAAGYWYRYFYYTSSPYDYWGQGTQVTVSS” the “polyreactivity (PSR sort gate)” value was “high polyreactivity”. In the case of “QVQLVESGGGLVQAGGSLRLSCAASGSIFRYYVMGWYRQAPGKERELVAAINGGGGSTYYADSVKGRFTISRDNAKNTVYLQMNSLKPEDTAVYYCNAVGGTRGKYPYFKYGYWGQGTQVTVSS”, the “polyreactivity (PSR sort gate)” value is reported as “high polyreactivity”. For “QVQLVESGGGLVQAGGSLRLSCAASGLTFWYYAMGWYRQAPGKERELVAAIDWSGASTYYADSVKGRFTISRDNAKNTVYLQMYSLKPEDTAVYYCNTVYYIGDDYWGQGTQVTVSS”, the “polyreactivity (PSR sort gate)” value was “high polyreactivity”. With “QDQLVESGGGLVQAGGSLRLSCDASGFILETNAMGWYRQAPGKERELVASITSSGSTYYADSVKGRFTISRDNAKNTVYLQMNSLKREVTAVYYCAARRYRSRGRTYGWFRYDYWGQGTQVTVSS” the “polyreactivity (PSR sort gate)” value was “high polyreactivity”. With “QVQLVESGGGLVQAGGSLRLSCAASGSTFDDYAMGWYRQAPGKERELVAAISRSDGSTSYADSVKGRFTISRDNAKNTVYLQMNSLKPEDTAVYYCAADPVFKDDLWPVRVRVDYWGQGTQVTVSS” the “polyreactivity (PSR sort gate)” value was “low polyreactivity”. For “QVQLVESGGGLFQAGGSLRLSCAASGRTFYYYAMGWYRQAPGKERELVASISRTGGPTSYADSVKGRFTISRDTAKNPVYLQMNSLKPEDTAVYYCATRRRVYSGYDYWGQGTQVTVSS”, the “polyreactivity (PSR sort gate)” value was “high polyreactivity”. In the case of “QVQLVESGGGLVQAGGSLRLSCAASGRTFRYNAMGWYRQAPGKERELVASIRYSSASTYYADSVKGRFTISRDNAKNTVYLQMNSLKPVDTAVYYCAASWYPVFVGYDYWGQGTQVTVSS”, the “polyreactivity (PSR sort gate)” value is reported as “high polyreactivity”. For “QVQLVESGGGLVQAGGSLRLSCAASGSISAPNAMGWYRQAPGKERALVATINSGGRTNYADSVKGRFTISRDNAKNTVYFQMNSLKPEDTAVYYCNTVVRGAYTYGDVSKYDYWGHGTQVTVSS”, the “polyreactivity (PSR sort gate)” value was “low polyreactivity”. With “QVQLVESGGGLVQAGGSLRLSCAATGRIYVTNAMGWYRQAPGKERELVAAITESGGSTYYADTVKGRFTISRDNAKNTVYLQMNSLKPEDTAVYYCAADYLNGEEDYWGQGTQVTVSS” the “polyreactivity (PSR sort gate)” value was “low polyreactivity”. For “QVQLVETGGGLVQAGGSLRLSCAASGITLYFYAMGWSRQAPGKEREMVAGISGSVGSTHYADSVKGRFTISRDNAKNTVYSQMNSLKPEDTAVYYCDAAQVGYYVASVTYGYWGQGTQVTVSS”, the “polyreactivity (PSR sort gate)” value was “high polyreactivity”. With “QVQLVESGGGLVQAGGSLRLSCAASGSTFVRYAMGWYRQAPGKERELVATISSRGGRTYYADSVKGRFTISRDNAKNTVYLQMNSLKPEDTAVYYCAADRRAAVPFGYGYWGQGTQVTVSS” the “polyreactivity (PSR sort gate)” value was “high polyreactivity”. In the case of “QVQLVESGGGLVQAGGSLRLSCAASGSIFFVNAMGWYRQAPGKERELVAGITGGGSTYYADSVKGRFTISRDNAKNTVYLQMNSLKPEDTAVYYCNKKAYRKTGMDYWGQGTQVTVSS”, the “polyreactivity (PSR sort gate)” value is reported as “low polyreactivity”. In the case of “QVQLVESGGGLVQAGGSLRLSCAASGSTFYVYAMGWYRPAPGKERELVATISSSGAITYYADSVKGRFTISGDNAKNTVYLQMNSLKPEDTAVYYCARTGSLLSQVWYNYWGQGTQVTVSS”, the “polyreactivity (PSR sort gate)” value is reported as “low polyreactivity”. With “QVQLVESGGGLVQAGGSLRLSCAASGFTIGANNMGWYRQAPGKERELLAAISASGGSTYYADSVKGRFTISRDNAKNTVYLQMNSLKPEDTAVYYCAARRYPGRTATYYSWGQGTQVTVSS” the “polyreactivity (PSR sort gate)” value was “high polyreactivity”. In the case of “QVQLVESGGGLVQAGGSLRLRCAASGSTSPFNAMGWYRQAPGKERELVASITSSGSTNYADSVKGRFTISRDNAKNTVYLQINSLKPEDTAVYYCASEGVVSETFYAYWGQGTQVTVSS”, the “polyreactivity (PSR sort gate)” value is reported as “low polyreactivity”. With “QVQLVESGGGLVQAGGSLRLSCAASGRILPRNAMGWYRQAPGKERELVAAISWDGGSTYYADSVKGRFTISRDNAKNTDYLHMNSLKPEDTAVYYCATDYPSLHRGMDYWGQGTQVTVSS” the “polyreactivity (PSR sort gate)” value was “low polyreactivity”. For “QVQLVESGGGLVQAGGSLRLSCAASGITFGNYAMGWYRQAPGKERELVAAISQSSGRTYYADSVKGRFTISRDNAKNTVYLQMNSLKPEDTAVYYCAARTRGSSRGDYDYWGQGTQVTVSS”, the “polyreactivity (PSR sort gate)” value was “high polyreactivity”. With “QVQLVESGGGLVQAGGSLRLSCAASGSIFFSYAMGWYIQAPGKERELVAAITSSVDSTYYADSVKGRFTISRDNAKNTVYLQMNSLKPEDTAVYYCAARYRSGYYRYDYWGQGTQVTVSS” the “polyreactivity (PSR sort gate)” value was “low polyreactivity”.
